# From PMC6849719, “Characterization of the first naturally thermostable terpene synthases and development of strategies to improve thermostability in this family of enzymes” (The Febs Journal, 2017)
# Assays:
# [1] = system: T1, CC(C)=CCC/C(C)=C/CC/C(C)=C/CO[P@@](=O)(O)OP(=O)(O)O; experiment: purified protein; assay type: biochemical, Roseiflexus sp. RS-1; conditions: 65 °C, 10 mM MgCl2, TS buffer (MES/Tris/CAPS, 100 mM NaCl), 1 μM enzyme, FPP 1.2-92 μM, commercial ammonium salt
# T1 construct: full length (326 residues), N-terminal His6 tag (pET28a, NheI-EcoRI), codon-optimised gene, E. coli BL21(DE3); ~40 kDa
# [2] = substrate: CC(C)=CCC/C(C)=C/CC/C(C)=C/CO[P@@](=O)(O)OP(=O)(O)O; experiment: purified protein; assay type: biochemical, Roseiflexus castenholzii; conditions: 65 °C, 10 mM MgCl2, TS buffer (MES/Tris/CAPS, 100 mM NaCl), 1 μM enzyme, FPP 1.2-92 μM, commercial ammonium salt
Molecule,Km [1],kcat [1],Km [2],kcat [2]
RoseRS_3509 (Roseiflexus sp. RS-1),87 ± 31 µM,0.95 ± 0.29 s⁻¹,,
"Rcas_0622 (Roseiflexus castenholzii DSM 13941) (protein, full length, N-terminal His6 tag (pET28a, NheI-EcoRI), codon-optimised gene, E. coli BL21(DE3); ~40 kDa) MDQDYRARLVYPFSGAISPHADIVDQATLAWAAMFGLLTDSLRHKSRRLQYGLLAARAYPRADREMLQIAADWIAWLFFMDDQCDETGIGRDLQRMIALHERFLAILDGATPEAHDCALTYALADLRRRLALRAPDNWLRRFSEHVRLYFTANRWETVNRQRGATPNVATYCAARLFSGAVYACFDLIELAEQIELPFYARHHSIVQQLEQAANNIICWCNDVLSYPKEMQHGDRHNLVLVIQGEHQCSLPEAIDRALDLHAREVATFVRKRTCVPYFDAAVNTALEKYVTGLQFWICANRDWSLTATRYAPTHKSQEMVMAVAQQ",,,5.9 ± 2.0 µM,0.09 ± 0.008 s⁻¹
